Measurements: paper PMC2879597 (Structure (London, England : 1993), 2010)

T1: IL-22/sIL-22R1 binary complex (UniProt Q9GZX6 34-179; Q8N6P7 16-228)
T1 sequence (looked up) 1: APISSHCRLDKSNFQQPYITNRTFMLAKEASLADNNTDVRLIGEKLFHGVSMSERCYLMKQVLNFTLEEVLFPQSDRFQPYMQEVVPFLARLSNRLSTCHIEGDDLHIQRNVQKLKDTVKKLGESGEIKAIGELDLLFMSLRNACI
T1 sequence (looked up) 2: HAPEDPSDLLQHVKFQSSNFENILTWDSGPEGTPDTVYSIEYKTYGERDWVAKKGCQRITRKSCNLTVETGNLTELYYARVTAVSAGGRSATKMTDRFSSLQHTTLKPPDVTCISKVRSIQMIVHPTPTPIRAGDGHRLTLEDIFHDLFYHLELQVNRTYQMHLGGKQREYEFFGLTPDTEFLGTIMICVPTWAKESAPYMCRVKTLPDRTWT

T2: cmvIL-10/sIL-10R1 binary complex (cytomegalovirus (CMV) | , UniProt P17150 20-175; Q13651 22-235)
T2 sequence 1: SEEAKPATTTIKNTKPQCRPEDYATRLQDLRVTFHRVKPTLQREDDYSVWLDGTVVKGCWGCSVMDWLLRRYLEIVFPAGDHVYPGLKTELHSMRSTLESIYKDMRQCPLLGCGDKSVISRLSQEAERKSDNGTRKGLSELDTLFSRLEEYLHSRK
T2 sequence 2: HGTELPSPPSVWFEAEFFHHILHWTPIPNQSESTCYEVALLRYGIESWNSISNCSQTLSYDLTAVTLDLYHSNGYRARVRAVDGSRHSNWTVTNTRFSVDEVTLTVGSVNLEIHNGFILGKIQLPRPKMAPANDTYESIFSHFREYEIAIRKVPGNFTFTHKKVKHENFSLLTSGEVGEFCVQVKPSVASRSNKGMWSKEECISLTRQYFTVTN


How the values were obtained:
[1] = target: T1, IL-22/sIL-22R1 binary complex
[2] = target: T1, IL-22/sIL-22R1 binary complex; assay: SPR
[3] = target: hIL-10/sIL-10R1 binary complex (human | , UniProt P22301 19-178; Q13651 22-235); assay: SPR
[4] = target: T2, cmvIL-10/sIL-10R1 binary complex; assay: SPR

Sequence of hIL-10/sIL-10R1 binary complex (P22301 19-178, one chain of several): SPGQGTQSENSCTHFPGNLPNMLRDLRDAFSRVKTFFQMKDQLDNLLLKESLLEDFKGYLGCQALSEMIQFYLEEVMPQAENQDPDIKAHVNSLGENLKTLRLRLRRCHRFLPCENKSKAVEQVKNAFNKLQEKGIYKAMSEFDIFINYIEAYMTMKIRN

Row | Binder | Kd [1] [µM] | percent of wild-type binding (normalized RU) [2] | percent of wild-type binding (normalized RU) [3] | percent of wild-type binding (normalized RU) [4]
1 | sIL-10R2-NQ (soluble extracellular IL-10R2 chain with N49Q, N68Q, N102Q, N161Q) (receptor, human, UniProt Q08334 20-220, looked up) MVPPPENVRMNSVNFKNILQWESPAFAKGQLTFTAQYLSYRIFQDKCMQTTLTECDFSSLSKYGDHTLRVRAEFADEHSDWVQITFCPVDDTIIGPPGMQVEVLADSLHMRFLAPKIENEYETWTMKNVYNSWTYNVQYWKQGTDEKFQITPQYDFEVLRNLEPWTTYCVQVRGFLPDRNKAGEWSEPVCEQTTHDETVPS | 14 |  |  | 
2 | sIL-10R2 Y173A (on sIL-10R2-NQ) (receptor, human, UniProt Q08334 20-220, looked up) MVPPPENVRMNSVNFKNILQWESPAFAKGQLTFTAQYLSYRIFQDKCMQTTLTECDFSSLSKYGDHTLRVRAEFADEHSDWVQITFCPVDDTIIGPPGMQVEVLADSLHMRFLAPKIENEYETWTMKNVYNSWTYNVQYWKQGTDEKFQITPQADFEVLRNLEPWTTYCVQVRGFLPDRNKAGEWSEPVCEQTTHDETVPS |  | 65 % of WT |  | 
3 | sIL-10R2 Y56A (on sIL-10R2-NQ) (receptor, human, UniProt Q08334 20-220, looked up) MVPPPENVRMNSVNFKNILQWESPAFAKGQLTFTAQALSYRIFQDKCMQTTLTECDFSSLSKYGDHTLRVRAEFADEHSDWVQITFCPVDDTIIGPPGMQVEVLADSLHMRFLAPKIENEYETWTMKNVYNSWTYNVQYWKQGTDEKFQITPQYDFEVLRNLEPWTTYCVQVRGFLPDRNKAGEWSEPVCEQTTHDETVPS |  |  | ~20 % of WT | ~20 % of WT
4 | sIL-10R2 Y59A (on sIL-10R2-NQ) (receptor, human, UniProt Q08334 20-220, looked up) MVPPPENVRMNSVNFKNILQWESPAFAKGQLTFTAQYLSARIFQDKCMQTTLTECDFSSLSKYGDHTLRVRAEFADEHSDWVQITFCPVDDTIIGPPGMQVEVLADSLHMRFLAPKIENEYETWTMKNVYNSWTYNVQYWKQGTDEKFQITPQYDFEVLRNLEPWTTYCVQVRGFLPDRNKAGEWSEPVCEQTTHDETVPS |  | ~50 % of WT | ~50 % of WT | ~50 % of WT
5 | sIL-10R2 Y140A (on sIL-10R2-NQ) (receptor, human, UniProt Q08334 20-220, looked up) MVPPPENVRMNSVNFKNILQWESPAFAKGQLTFTAQYLSYRIFQDKCMQTTLTECDFSSLSKYGDHTLRVRAEFADEHSDWVQITFCPVDDTIIGPPGMQVEVLADSLHMRFLAPKIENEAETWTMKNVYNSWTYNVQYWKQGTDEKFQITPQYDFEVLRNLEPWTTYCVQVRGFLPDRNKAGEWSEPVCEQTTHDETVPS |  |  | ~20 % of WT | ~20 % of WT
6 | glycosylated sIL-10R2 (receptor, human, UniProt Q08334 20-220, looked up, N-linked glycosylation sites N49, N68, N102 and N161 (glycosylated)) MVPPPENVRMNSVNFKNILQWESPAFAKGNLTFTAQYLSYRIFQDKCMNTTLTECDFSSLSKYGDHTLRVRAEFADEHSDWVNITFCPVDDTIIGPPGMQVEVLADSLHMRFLAPKIENEYETWTMKNVYNSWTYNVQYWKNGTDEKFQITPQYDFEVLRNLEPWTTYCVQVRGFLPDRNKAGEWSEPVCEQTTHDETVPS | 7 |  |  | 
